What was measured:
[1] = GdnHCl- and urea-induced unfolding at 25° C. by circular dichroism (Example 2); format: physicochemical; details: CD
Protocol: The thermodynamic stability of A1 and of RCAM A1 was determined from GdnHCl and urea induced unfolding measured via CD and FL at 25° Celsius (FIG. 14). […] Complete unfolding of A1 and of RCAM A1 occurs in GdnHCl but not in urea. However, in presence of urea, a small expansion of RCAM A1 compared to A1 in its intermediate state is observed.
Urea and GdnHCl induced unfolding of A1 and of RCAM A1 at 25° Celsius was monitored via CD at 222 nm on an Aviv Biomedical Model 420C circular dichroism spectrometer. A 1 mm quartz cuvette and protein concentrations of 5 or 10 μM were used. Samples were equilibrated in their urea or GdnHCl containing buffer at 25° Celsius overnight. CD-signal was averaged for 5 to 10 min using an integration time of 1 s. CD-spectra were measured at 20° Celsius using 0.1 or 1 mm quartz cells with a step width of 1 nm between 190 and 260 nm with an integration time of 20 s and a bandwidth of 1 nm. CD-spectra in the near UV range (260-360 nm) were recorded using a 5 cm quartz cell with a 120 s integration time. Transition curves and protein spectra were corrected for the CD Signal of the corresponding buffer.

[2] = biological target: T1, platelet GPIbα (Homo sapiens, UniProt P07359); assay: Platelet adhesion to surface captured disulfide-intact A1 and RCAM A1 under shear flow (Example 2); format: cell-based
T1 construct: endogenous in cells; host or cells: platelets in citrated whole blood of normal healthy volunteer donors
Protocol: The interaction of disulfide-intact A1 and of RCAM A1 with platelets was studied by immobilizing the proteins via the 6×His-Tag on Cellix biochips in which the internal channel surface was coated with a Cu2+ chelating chemistry. A 5 μM concentration of protein was immobilized in the biochip and citrated whole blood was perfused at a shear rate of 800 s−1 (FIG. 11B). This perfusion was followed by TBS buffer and after red blood cells cleared the channel, the shear was decremented to 100 s−1 or incremented to 9000 s−1 every two minutes at logarithmic intervals. Surface bound platelets were allowed to equilibrate at a given shear rate for 50 s and a 60 s video at 24 frames per second was recorded and analyzed as described in the methods. The internal channel surface lacking immobilized A1 domain was completely inert to platelets.
At each shear rate, platelet mean pause times and mean translocation velocities were calculated from the X-Y trajectories of moving platelets as described in the methods. Approximately 1000 platelet trajectories were analyzed at each shear rate (FIGS. 11B to 11D). The mean pause times were also calculated from the pause time survival fraction obtained from the cumulative integral of the pause time distribution (FIG. 11B) (Thomas:2006). The survival fraction exponentially decreases with faster decay rates as shear increases. Fitting the survival fraction with a bi-exponential decay function results in the apparent rate constants and amplitudes as a function of shear rate (FIG. 11C).
The determination and analysis of platelet pause times and instantaneous translocation velocities over surface captured A1 and RCAM A1 was performed as previously described (Tischer:2013). Here, the inventor used the Cellix Mims Evo syringe pump controlled by VenaFluxAssay (www.cellixltd.com). Vena8™ CGS biochips were custom designed with 800 μm width by 80 μm height microchannels bonded to glass slides with a Cu^2+ chelated PEG surface serviced by Microsurfaces Inc. (www.proteinslides.com/histag.html) to which the A1 and RCAM A1 in TBS were captured by the 6×His-Tag at a total concentration of 5 μM. Citrated whole blood was obtained from the informed consent of healthy volunteer donors with approval from the Mayo Clinic Institutional Review Board and 100 μL was perfused over the surface captured A1 domains at […]. The shear was increased or decreased in a stepwise manner to measure the dynamics of platelet adhesion at high and low shear. After allowing the flow chamber to equilibrate for 50 s at each shear rate, 1 min movies were recorded at 24 frames per second in phase contrast at 200× magnification with 2×2 pixel binning on a Zeiss AxioCam Mrm camera (6.45 μm/px) attached to a Zeiss Axio Observer.D1 inverted microscope. Tracking analysis was performed using MediaCybernetics ImagePro® Premier (www.mediacy.com/index.aspx?page=IP\_Premier) The distance travelled in the direction of flow was calculated from the coordinate data for each platelet as a function of time using √{square root over ((xt−x0)^2)}, where x0 is the coordinates of a platelet on the first frame of the movie and xt is the coordinate on subsequent frames of the movie. These trajectories were differentiated into instantaneous velocities using a Savitzky-Golay algorithm (Savitzky:1964) with a five data point window size and a second order polynomial implemented into a Mathematica (www.wolfram.com/mathematica) notebook written in our lab. Trajectories were retained for statistical analysis if the platelet was present for ≧1 s and travelled a total distance greater than 1 Distance travelled in pixels (px) was converted to (μm) using 6.45 μm/px*2/200=0.0645 μm/px. Pause times were determined by the amount of time (sec) a platelets velocity was 0±4 px/s≅0±0.23 μm/s, within the noise. Data are reported as mean velocities and pause times attained by individual platelets averaged over all platelets analyzed. […]

[3] = determined previously (Auton:2009); cited from earlier work
[4] = Urea-induced unfolding monitored by CD at 222 nm (Example 1); format: physicochemical; details: 25° Celsius, native to intermediate transition
Protocol: A1-1261 and A1-1238 were chemically unfolded with urea in order to compare the obtained thermodynamic parameters. The unfolding was monitored at 25° Celsius by CD at λ=222 nm, FIG. 3B. For both proteins, unfolding through an intermediate state was observed, as has been previously reported (Auton:2009). The thermodynamic parameters are illustrated in the insets of FIG. 3B and listed in the Supplement Table 2. Relative to A1-1261, A1-1238 has a marginal loss in unfolding cooperativity (+0.55±0.38 kJ/mol/M) of the transition and the midpoint, cm, of A1-1238 is increased by +0.27±0.04 M. These two contributions to the ΔG^0 cancel each other so that the N-terminal peptide is neither stabilizing nor destabilizing the conformational transition.
Isothermal urea induced unfolding of A1-1261 and A1-1238 at 25° Celsius was monitored via CD at λ=222 nm using a quartz cuvette with a path length of 1 mm and a protein concentration of 10 μM after an overnight equilibration. CD-signal was averaged for 10 min, corrected for the corresponding CD-signal of the buffer and converted into mean molar ellipticities per amino acid residue (θMRW).
Isothermal urea unfolding was analyzed using a three state reversible model (N<->I<->D) as previously described (Auton:2009, Auton:2007). All thermal unfolding transitions were analyzed according to the irreversible models provided in the Supporting Information. […]

## A1-1238: Recombinant human vWF A1 domain, amino acids Q1238-P1471, with N-terminal 6×His-Tag, disulfide intact
[1]; GdnHCl
  cm, I ⇄ D: 4.40 ± 0.02 M
  cm, N ⇄ I: 0.819 ± 0.006 M
  m-value, I ⇄ D: −6.66 ± 0.30 kJ/mol/M
  m-value, N ⇄ I: −18.67 ± 0.76 kJ/mol/M
  ΔG^0, I ⇄ D: 7.003 ± 0.315 kcal/mol
  ΔG^0, N ⇄ I: 3.654 ± 0.151 kcal/mol
[1]; Urea
  cm, I ⇄ D: 10.03 ± 0.19 M
  cm, N ⇄ I: 2.85 ± 0.02 M
  m-value, I ⇄ D: −3.35 ± 0.62 kJ/mol/M
  m-value, N ⇄ I: −4.70 ± 0.17 kJ/mol/M
  ΔG^0, I ⇄ D: 8.03 ± 1.49 kcal/mol
  ΔG^0, N ⇄ I: 3.203 ± 0.117 kcal/mol
[2]; listed as A1
  Shear rate at which platelets detach from the surface immobilized domain: less than 300 s−1
[2]; listed as disulfide-intact A1
  Shear rate at which platelets detach from the surface immobilized domain: ≤ 300 s⁻¹
[2]; shear rate 530 s−1
  Mean platelet pause time: ~0.75 s
[2]; shear rate 1025 s−1
  Mean platelet pause time: ~0.9 s
[3]
  Tm from reversible N<->I urea-temperature phase diagram: 51.1±0.5 ° Celsius
[4]
  Change in midpoint cm relative to A1-1261: +0.27±0.04 M
  Change in unfolding cooperativity (m-value) relative to A1-1261: +0.55±0.38 kJ/mol/M
